Source: PMC3256971 (The Journal of Experimental Medicine, 2011)
Each block holds one molecule with its values, some of them ahead of it.

Experiments:
soluble I-A^g7 (mouse) [1] = test: radioligand binding
soluble I-A^g7 (mouse) [2] = test: SDS stability of the complex
I-A^g7 [3] = details: ref Yu et al., 2000; Levisetti et al., 2007; cited from earlier work
B16A-dKO mice = test: Immunization and IL-2 ELISPOT in B16A-dKO mice; type: in vivo, mouse; details: 10 nmol in CFA, restimulation at 10 µM, Fig. 4 c
I-A^g7 [4] = details: ref Yu et al., 2000; Levisetti et al., 2007; cited from earlier work; remark: listed apart in the source

Molecule: radioactive peptide bearing the nested register 2:13–21 sequence (added N-terminal tyrosine, B16 tyrosine to phenylalanine)
percent SDS stable (soluble I-A^g7 (mouse) [2]): 70%

Molecule: SHLVEALYLVCGERG [B:9–23]
binding affinity to I-A^g7 (I-A^g7 [3]): very low affinity
IL-2 ELISPOT response to register 1 after immunization (B16A-dKO mice): detected a response to register 1 similar to that found in NOD mice
rate of dissociation from I-A^g7 (I-A^g7 [4]): fast rate of dissociation

Molecule: TEGVEALYLVCGGGS [nested register 1:12–20 peptide (insulin B:12–20 with flanking residues)]
IC50 (soluble I-A^g7 (mouse) [1]): 1400 nM

Molecule: TEGALYLVCGERGGS [nested register 3:14–22 peptide (insulin B:14–22 with flanking residues)]
IC50 (soluble I-A^g7 (mouse) [1]): 5500 nM

Other lines, results leading:

percent of the bound peptide lost in the first 20 min (soluble I-A^g7 (mouse) [1]): > 50%
Molecule: radioactive peptide bearing the nested register 1:12–20 sequence (added N-terminal tyrosine, B16 tyrosine to phenylalanine)

IC50 (soluble I-A^g7 (mouse) [1]): 500 nM
Molecule: nested B:12–21 peptide with flanking residues

IC50 (soluble I-A^g7 (mouse) [1]): 700 nM
Molecule: TEGEALYLVCGEGGS [nested register 2:13–21 peptide (insulin B:13–21 with flanking residues)]
